Biological target: the molecule itself
Experiment: solid-state NMR of amyloid fibrils

B1: Syrian hamster PrP23-144 (domain or fragment)
chain: KKRPKPGGWNTGGSRYPGQGSPGGNRYPPQGGGTWGQPHGGGWGQPHGGGWGQPHGGGWGQPHGGGWGQGGGTHNQWNKPSKPKTNMKHMAGAAAAGAVVGGLGGYMLGSAMSRPMMHFGND
binding result: binds

Source: publication PMC5622040 (Nature Communications, 2017)
